In the supplement of paper PMC10567573 one finds protein stability index data, which are given here for 37 sequences.

This series is described as follows: protein stability index of a GFP-peptide fusion (GPS, HEK-293T) (PSI 1-6); higher = more stable. The settings on record: c terminus: a fixed tail appended.

± gives the standard deviation.
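Note: 24-mer peptide tiles fused after GFP, lentivirally expressed, FACS-sorted into six equal bins by GFP/DsRed ratio, decoded by Illumina sequencing, PSI is the read-weighted mean bin number.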

HNRSNNKYSYTSTSDDNLLKNIEL [KCTD13] displayed a protein stability index (treatment: DMSO) of 3.66 ± 0.12 and a protein stability index (treatment: MLN4924 1 uM, 8 h) of 3.73 ± 0.16.
Consider HPYSTTFQESASTPETRAKFTQDN [TEKT4], for which the protein stability index came to 4.54 ± 0.13 (treatment: DMSO) and 4.67 ± 0.31 (treatment: MLN4924 1 uM, 8 h).
For HQLDFVQVKASSPVPATPILQLEE [TRIM9], the protein stability index amounted to 4.54 ± 0.094 (treatment: DMSO) and 4.49 ± 0.33 (treatment: MLN4924 1 uM, 8 h).
Regarding HQYWPAERSARYQYFVVDPMAEYN [PTPRD], the protein stability index runs as follows: (treatment: DMSO) 2.4 ± 0.19; (treatment: MLN4924 1 uM, 8 h) 2.51 ± 0.32.
For the sequence HRHTSHLGHAVLPSNARGPILSRS [SPRY1], the protein stability index by setting is: (treatment: DMSO) 3.69 ± 0.14; (treatment: MLN4924 1 uM, 8 h) 3.94 ± 0.13.
With HSGSVVGAGLPQFQSISLRKIQFN [CLCN6], the protein stability index is 2.85 ± 0.24 (treatment: DMSO) and 3 ± 0.27 (treatment: MLN4924 1 uM, 8 h).
The corresponding values for HSMKPHPAITATLLDFMCRIIPNF [INTS3] are 2.96 ± 0.45 and 3 ± 0.88.
Regarding HSTTPSGPGDEVARGIAGEKFDIV [ARFIP2], the protein stability index was determined as 4.75 ± 0.34 (treatment: DMSO) and 4.64 ± 0.15 (treatment: MLN4924 1 uM, 8 h).
HTGEPLFSGSNEVDQMNRIVEVLG [DYRK1B]: the protein stability index was 3.59 ± 0.21 (treatment: DMSO) and 3.57 ± 0.25 (treatment: MLN4924 1 uM, 8 h).
As for HTNCFELSIYVGCDKYPHESQLPE [CPXM2], the protein stability index came out at 2.54 ± 0.34 (treatment: DMSO) and 2.44 ± 0.051 (treatment: MLN4924 1 uM, 8 h).
The matching figures for HTPAGAAVSAMKCGLLPISPEALS [ADD1]: 3.13 ± 0.25 and 3.29 ± 0.32.
The corresponding values for HTVPDFHLSSPAKNFFKKAAAALF [PLK2] are 2.74 ± 0.96 and 2.65 ± 0.73.
The corresponding values for HVFQRQKSELSDGIAILVGSNDRV [TRIM55] are 3.18 ± 0.25 and 3.21 ± 0.21.
Regarding HVMGLYPDLLPTDYRKQLQYPNPL [VPS39], the protein stability index is, setting by setting: (treatment: DMSO) 2.34 ± 0.28; (treatment: MLN4924 1 uM, 8 h) 2.59 ± 0.24.
In the case of HYGNIMYDRRVIRGNTYALQTGPL [RSPH3], the protein stability index runs as follows: (treatment: DMSO) 2.33 ± 0.1; (treatment: MLN4924 1 uM, 8 h) 2.13 ± 0.32.
Regarding ICELVMALDYLQNQRIIHRDMKPD [STK32A], the protein stability index stood at 2.62 ± 0.64 (treatment: DMSO) and 2.44 ± 0.5 (treatment: MLN4924 1 uM, 8 h).
Turning to ICPKCWTLMTMAIRIIDRALKEDF [PRIM1], the protein stability index reads like this: (treatment: DMSO) 2.25 ± 0.26; (treatment: MLN4924 1 uM, 8 h) 2.57 ± 0.37.
The corresponding values for ICPLKERRFGAVACGVAMELYVFG [GAN] are 2.36 ± 0.53 and 2.96 ± 1.1.
As for IDNTTVIYNSNIFTDPFFIVETLC [KCNA1], the protein stability index amounted to 2.72 ± 0.67 (treatment: DMSO) and 2.53 ± 0.37 (treatment: MLN4924 1 uM, 8 h).
For the sequence IEKTGGVEAVKNELRRQAPPPPPP [WASL], the protein stability index runs as follows: (treatment: DMSO) 4.492 ± 0.027; (treatment: MLN4924 1 uM, 8 h) 4.46 ± 0.58.
As to IGESMYGDFEEAFDHLQNRLIATK [TENT5C], the protein stability index was 3.63 ± 0.12 (treatment: DMSO) and 3.59 ± 0.067 (treatment: MLN4924 1 uM, 8 h).
In the case of IGGHLVRDNDHPDHSSRELSKILA [FUT8], the protein stability index stood at 3.92 ± 0.19 (treatment: DMSO) and 3.9 ± 0.18 (treatment: MLN4924 1 uM, 8 h).
The corresponding values for IISKPVPQTLIMAYDYAKEVNSAE [FEM1C] are 2.93 ± 0.34 and 2.81 ± 0.16.
With IKDLSVVHSDLSSIVILDNSPGAY [CTDNEP1], the protein stability index was found to be 2.49 ± 0.23 (treatment: DMSO) and 2.48 ± 0.3 (treatment: MLN4924 1 uM, 8 h).
As to ILGETQEEEDEILPRKDYESLDYD [CLCN6], the protein stability index (treatment: DMSO) was 5.33 ± 0.2 and the protein stability index (treatment: MLN4924 1 uM, 8 h) worked out at 5.18 ± 0.086.
Where the note is “treatment: DMSO”, ILHTAWHPSENIIAVAATNNLYIF [PPP2R2B] yielded a protein stability index of 3.17 ± 0.04.
Turning to ILKNLSQVAMRCRCSSMHFLVAEW [SAT1], the protein stability index by setting is: (treatment: DMSO) 2.4 ± 0.2; (treatment: MLN4924 1 uM, 8 h) 2.65 ± 0.31.
The matching figures for ILNLKKKECKDRGFEYDGKINAWD [NLN]: 2.97 ± 0.26 and 3.43 ± 0.6.
The corresponding values for ILSGHEHAVSTCHFCVDDTKLLSG [WDR88] are 2.71 ± 0.35 and 2.92 ± 0.35.
The corresponding values for IMNDLSNRVWSISQEPDPVQRLQA [TRIM14] are 3.16 ± 0.31 and 3.16 ± 0.17.
For INGLQAWLLTHLLWFANAHLLSWF [DHCR7], the protein stability index amounted to 3.18 ± 0.3 (treatment: DMSO) and 3.07 ± 0.44 (treatment: MLN4924 1 uM, 8 h).
The corresponding values for INSTAPFEEQENYFLLCDVLPEDR [ZNF277] are 3.92 ± 0.36 and 4.12 ± 0.18.
Turning to INVWDVLKGSRVSILFGHENRVST [GNB5], the protein stability index (treatment: DMSO) worked out at 2.31 ± 0.33 and the protein stability index (treatment: MLN4924 1 uM, 8 h) stood at 2.27 ± 0.34.
With IQDRLSNTLQTYIRCRHPPPGSHL [VDR], the protein stability index runs as follows: (treatment: DMSO) 2.73 ± 0.17; (treatment: MLN4924 1 uM, 8 h) 2.74 ± 0.22.
The corresponding values for IQKLTQIETGENVTGMELEFKRLA [PTPRD] are 3.51 ± 0.08 and 3.55 ± 0.43.
As to IQLKSVADGQESTPPTPAPTSGIV [WASL], the protein stability index is 4.68 ± 0.21 (treatment: DMSO) and 4.84 ± 0.16 (treatment: MLN4924 1 uM, 8 h).
Regarding IQRPANAIKEMIENCLDAKSTSIQ [MLH1], for the setting “treatment: DMSO”, the protein stability index came out at 4.16 ± 0.16.
